From the supplement of paper PMC10598134
± gives the standard deviation.

Assay: collision cross section of modified peptide (TIMS, N2, iRT-aligned); higher = larger / more extended gas-phase ion
In short: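 Collision cross section was derived from the Mason-Schamp equation. Each value averages 1–3 technical replicates of the most abundant feature per charge state, measured on a timsTOF Pro/HT in dda-PASEF mode (nitrogen, ~2.4 mbar) after a 120-min nanoflow C18 gradient at 60 °C. Synthetic peptide pools (~100 fmol/µL in 2% acetonitrile/0.1% formic acid, iRT standard spiked 1:40) were identified with MaxQuant, and 1/K0 was calibrated with three reference ions and aligned run-wise to the median iRT peptide deviation.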

[1] = charge state: 2, modification: Phospho (Y)
[2] = charge state: 2, modification: Nitro (Y)
[3] = charge state: 3, modification: Nitro (Y)
[4] = charge state: 3, modification: Phospho (Y)
[5] = charge state: 3, modification: Citrullination (R)
[6] = charge state: 3, modification: Methyl (R)
[7] = charge state: 2, modification: HexNAc (ST)
[8] = charge state: 3, modification: Acetyl (K)
[9] = charge state: 3, modification: Dimethyl (K)
[10] = charge state: 2, modification: Glutarylation
[11] = charge state: 2, modification: GlyGly (K)
[12] = charge state: 3, modification: GlyGly (K)
[13] = charge state: 3, modification: Methyl (K)
[14] = charge state: 2, modification: Succinyl
[15] = charge state: 3, modification: Trimethyl (K)
[16] = charge state: 3, modification: HexNAc (ST)
[17] = charge state: 2, modification: Acetyl (K)
[18] = charge state: 2, modification: Butyryl
[19] = charge state: 2, modification: Crotonyl
[20] = charge state: 2, modification: Formyl
[21] = charge state: 2, modification: Malonyl
[22] = charge state: 2, modification: Methyl (K)
[23] = charge state: 2, modification: hydroxyisobutyryl
[24] = charge state: 3, modification: Butyryl
[25] = charge state: 3, modification: Crotonyl
[26] = charge state: 3, modification: Formyl
[27] = charge state: 3, modification: Glutarylation
[28] = charge state: 3, modification: Malonyl
[29] = charge state: 3, modification: Succinyl
[30] = charge state: 3, modification: hydroxyisobutyryl

## HGVYNPNK [_HGVY(Phospho (Y))NPNK_]
[1]
  collision cross section: 346.37 ± 0.75 Å²

## HHAAYVNNLNVTEEK [_HHAAY(Nitro (Y))VNNLNVTEEK_]
[2]
  collision cross section: 438.46 Å²
[3]
  collision cross section: 499.02 ± 3.6 Å²

## HHAAYVNNLNVTEEK [_HHAAY(Phospho (Y))VNNLNVTEEK_]
[1]
  collision cross section: 438.56 Å²
[4]
  collision cross section: 495.42 ± 1.2 Å²

## HHTLRQAPQPQSSLQR [_HHTLR(Citrullination (R))QAPQPQSSLQR_]
[5]
  collision cross section: 502.84 ± 0.41 Å²

## HIGFVYHPTK [_HIGFVY(Nitro (Y))HPTK_]
[2]
  collision cross section: 375.77 ± 0.17 Å²
[3]
  collision cross section: 448.27 ± 1.8 Å²

## HIGFVYHPTK [_HIGFVY(Phospho (Y))HPTK_]
[1]
  collision cross section: 384.4 ± 0.77 Å²
[4]
  collision cross section: 458.98 ± 1.8 Å²

## HLRGHGPQPPLR [_HLR(Citrullination (R))GHGPQPPLR_]
Charge state: 2, modification: Citrullination (R)
  collision cross section: 393.67 ± 4.3 Å²
[5]
  collision cross section: 482.78 ± 1.8 Å²

## HLRGHGPQPPLR [_HLR(Methyl (R))GHGPQPPLR_]
[6]
  collision cross section: 492.6 ± 2.1 Å²

## HSPTLPEPGGLRLELPLSR [_HSPTLPEPGGLR(Citrullination (R))LELPLSR_]
[5]
  collision cross section: 513.82 ± 1.9 Å²

## HTLLRAPAPELLPANVAGR [_HTLLR(Citrullination (R))APAPELLPANVAGR_]
[5]
  collision cross section: 517.22 ± 8.9 Å²

## HTLLRAPAPELLPANVAGR [_HTLLR(Methyl (R))APAPELLPANVAGR_]
[6]
  collision cross section: 530.63 ± 1.2 Å²

## HVSPVTPPR [_HVSPVT(HexNAc (ST))PPR_]
[7]
  collision cross section: 366.95 ± 0.8 Å²

## IDLPAENSNSETIIITGKR [_IDLPAENSNSETIIITGK(Acetyl (K))R_]
[8]
  collision cross section: 569.63 Å²

## IDLPAENSNSETIIITGKR [_IDLPAENSNSETIIITGK(Dimethyl (K))R_]
[9]
  collision cross section: 568.21 ± 0.55 Å²

## IDLPAENSNSETIIITGKR [_IDLPAENSNSETIIITGK(Gluratylation)R_]
[10]
  collision cross section: 499.21 ± 1.9 Å²

## IDLPAENSNSETIIITGKR [_IDLPAENSNSETIIITGK(GlyGly (K))R_]
[11]
  collision cross section: 493.9 ± 1.8 Å²
[12]
  collision cross section: 582.79 ± 0.38 Å²

## IDLPAENSNSETIIITGKR [_IDLPAENSNSETIIITGK(Methyl (K))R_]
[13]
  collision cross section: 568.48 ± 0.62 Å²

## IDLPAENSNSETIIITGKR [_IDLPAENSNSETIIITGK(Succinyl)R_]
[14]
  collision cross section: 492.62 ± 0.3 Å²

## IDLPAENSNSETIIITGKR [_IDLPAENSNSETIIITGK(Trimethyl (K))R_]
[15]
  collision cross section: 576.62 Å²

## IEDEQALGSQLQK [_IEDEQALGS(HexNAc (ST))QLQK_]
[7]
  collision cross section: 424.7 ± 0.62 Å²
[16]
  collision cross section: 499.3 ± 0.96 Å²

## IFDSEEILAGYK [_IFDSEEILAGY(Nitro (Y))K_]
[2]
  collision cross section: 395.88 ± 0.18 Å²

## IGAEVYHHLK [_IGAEVY(Nitro (Y))HHLK_]
[2]
  collision cross section: 375.15 ± 0.55 Å²
[3]
  collision cross section: 440.09 ± 1.8 Å²

## IGAEVYHHLK [_IGAEVY(Phospho (Y))HHLK_]
[1]
  collision cross section: 385.73 ± 0.77 Å²

## IGNSYFKEEK [_IGNSYFK(Acetyl (K))EEK_]
[17]
  collision cross section: 372.71 ± 0.4 Å²

## IGNSYFKEEK [_IGNSYFK(Biotin)EEK_]
Charge state: 2, modification: Biotin
  collision cross section: 398.98 Å²

## IGNSYFKEEK [_IGNSYFK(Butyryl)EEK_]
[18]
  collision cross section: 377.97 ± 0.72 Å²

## IGNSYFKEEK [_IGNSYFK(Crotonyl)EEK_]
[19]
  collision cross section: 378.81 ± 0.89 Å²

## IGNSYFKEEK [_IGNSYFK(Dimethyl (K))EEK_]
Charge state: 2, modification: Dimethyl (K)
  collision cross section: 384.15 ± 0.26 Å²
[9]
  collision cross section: 447.26 ± 3 Å²

## IGNSYFKEEK [_IGNSYFK(Formyl)EEK_]
[20]
  collision cross section: 368.62 ± 0.55 Å²

## IGNSYFKEEK [_IGNSYFK(Gluratylation)EEK_]
[10]
  collision cross section: 381.23 ± 0.61 Å²

## IGNSYFKEEK [_IGNSYFK(GlyGly (K))EEK_]
[11]
  collision cross section: 386.48 ± 0.54 Å²
[12]
  collision cross section: 442.05 ± 1.6 Å²

## IGNSYFKEEK [_IGNSYFK(Malonyl)EEK_]
[21]
  collision cross section: 378.34 Å²

## IGNSYFKEEK [_IGNSYFK(Methyl (K))EEK_]
[22]
  collision cross section: 373.94 ± 0.87 Å²
[13]
  collision cross section: 450.33 ± 4.8 Å²

## IGNSYFKEEK [_IGNSYFK(Propionyl)EEK_]
Charge state: 2, modification: Propionyl
  collision cross section: 375.51 ± 0.65 Å²

## IGNSYFKEEK [_IGNSYFK(Succinyl)EEK_]
[14]
  collision cross section: 382.2 ± 0.76 Å²

## IGNSYFKEEK [_IGNSYFK(Trimethyl (K))EEK_]
Charge state: 2, modification: Trimethyl (K)
  collision cross section: 378.87 ± 0.63 Å²
[15]
  collision cross section: 441.97 ± 1.8 Å²

## IGNSYFKEEK [_IGNSYFK(hydroxyisobutyryl)EEK_]
[23]
  collision cross section: 380.01 ± 0.8 Å²

## IGSLDNITHVPGGGNK [_IGS(HexNAc (ST))LDNITHVPGGGNK_]
[16]
  collision cross section: 493.45 ± 0.96 Å²

## IHNAENIQPGEQKYEYK [_IHNAENIQPGEQK(Acetyl (K))YEYK_]
[17]
  collision cross section: 481.31 Å²
[8]
  collision cross section: 525.52 ± 2.1 Å²

## IHNAENIQPGEQKYEYK [_IHNAENIQPGEQK(Butyryl)YEYK_]
[24]
  collision cross section: 530.34 ± 2.7 Å²

## IHNAENIQPGEQKYEYK [_IHNAENIQPGEQK(Crotonyl)YEYK_]
[25]
  collision cross section: 531.58 ± 2.8 Å²

## IHNAENIQPGEQKYEYK [_IHNAENIQPGEQK(Formyl)YEYK_]
[26]
  collision cross section: 518.35 ± 1.3 Å²

## IHNAENIQPGEQKYEYK [_IHNAENIQPGEQK(Gluratylation)YEYK_]
[10]
  collision cross section: 490.8 ± 1.2 Å²
[27]
  collision cross section: 532.09 ± 1.1 Å²

## IHNAENIQPGEQKYEYK [_IHNAENIQPGEQK(GlyGly (K))YEYK_]
[12]
  collision cross section: 529.6 ± 1.2 Å²

## IHNAENIQPGEQKYEYK [_IHNAENIQPGEQK(Malonyl)YEYK_]
[28]
  collision cross section: 527.67 ± 2.8 Å²

## IHNAENIQPGEQKYEYK [_IHNAENIQPGEQK(Methyl (K))YEYK_]
[13]
  collision cross section: 526.19 ± 0.79 Å²

## IHNAENIQPGEQKYEYK [_IHNAENIQPGEQK(Succinyl)YEYK_]
[29]
  collision cross section: 525.87 ± 2 Å²

## IHNAENIQPGEQKYEYK [_IHNAENIQPGEQK(Trimethyl (K))YEYK_]
[15]
  collision cross section: 526.11 ± 2.2 Å²

## IHNAENIQPGEQKYEYK [_IHNAENIQPGEQK(hydroxyisobutyryl)YEYK_]
[23]
  collision cross section: 491.39 ± 0.68 Å²
[30]
  collision cross section: 532.88 ± 2 Å²

## IHPEGPPLK [_IHP(Hydroxyproline)EGPPLK_]
Charge state: 2, modification: Hydroxyproline
  collision cross section: 331.8 ± 0.88 Å²
Charge state: 3, modification: Hydroxyproline
  collision cross section: 438.36 ± 0.43 Å²

## IHVQSSSDSSDEPAEKR [_IHVQSSSDSSDEPAEK(Acetyl (K))R_]
[17]
  collision cross section: 446.96 ± 2.2 Å²
[8]
  collision cross section: 501.64 ± 1.1 Å²

## IHVQSSSDSSDEPAEKR [_IHVQSSSDSSDEPAEK(Biotin)R_]
Charge state: 3, modification: Biotin
  collision cross section: 513.52 Å²

## IHVQSSSDSSDEPAEKR [_IHVQSSSDSSDEPAEK(Butyryl)R_]
[18]
  collision cross section: 452.33 ± 0.51 Å²
[24]
  collision cross section: 504.47 ± 2.6 Å²

## IHVQSSSDSSDEPAEKR [_IHVQSSSDSSDEPAEK(Crotonyl)R_]
[19]
  collision cross section: 451.2 Å²
[25]
  collision cross section: 506.27 ± 1.7 Å²

## IHVQSSSDSSDEPAEKR [_IHVQSSSDSSDEPAEK(Dimethyl (K))R_]
[9]
  collision cross section: 519.62 ± 3.4 Å²

## IHVQSSSDSSDEPAEKR [_IHVQSSSDSSDEPAEK(Formyl)R_]
[20]
  collision cross section: 447.23 Å²
[26]
  collision cross section: 491.34 ± 2.1 Å²

## IHVQSSSDSSDEPAEKR [_IHVQSSSDSSDEPAEK(Gluratylation)R_]
[10]
  collision cross section: 455.23 ± 1.5 Å²
[27]
  collision cross section: 511.69 ± 2 Å²

## IHVQSSSDSSDEPAEKR [_IHVQSSSDSSDEPAEK(GlyGly (K))R_]
[11]
  collision cross section: 469.51 Å²
[12]
  collision cross section: 539.73 ± 0.58 Å²

## IHVQSSSDSSDEPAEKR [_IHVQSSSDSSDEPAEK(Malonyl)R_]
[21]
  collision cross section: 452 ± 1.6 Å²
[28]
  collision cross section: 506.71 ± 1.6 Å²

## IHVQSSSDSSDEPAEKR [_IHVQSSSDSSDEPAEK(Methyl (K))R_]
[22]
  collision cross section: 448.84 Å²
[13]
  collision cross section: 522.27 ± 1 Å²

## IHVQSSSDSSDEPAEKR [_IHVQSSSDSSDEPAEK(Propionyl)R_]
Charge state: 3, modification: Propionyl
  collision cross section: 506.45 ± 1.4 Å²

## IHVQSSSDSSDEPAEKR [_IHVQSSSDSSDEPAEK(Succinyl)R_]
[14]
  collision cross section: 452.62 ± 0.81 Å²
[29]
  collision cross section: 507.09 ± 1.9 Å²

## IHVQSSSDSSDEPAEKR [_IHVQSSSDSSDEPAEK(Trimethyl (K))R_]
[15]
  collision cross section: 528.1 ± 1.6 Å²

## IHVQSSSDSSDEPAEKR [_IHVQSSSDSSDEPAEK(hydroxyisobutyryl)R_]
[23]
  collision cross section: 455.71 ± 0.4 Å²
[30]
  collision cross section: 514.66 ± 3.7 Å²

## IINEPTAAAIAYGLDKK [_IINEPTAAAIAYGLDK(Acetyl (K))K_]
[17]
  collision cross section: 458.66 ± 2.6 Å²
[8]
  collision cross section: 554.46 ± 1.6 Å²

## IINEPTAAAIAYGLDKK [_IINEPTAAAIAYGLDK(Butyryl)K_]
[18]
  collision cross section: 465.29 ± 0.5 Å²
[24]
  collision cross section: 559.62 ± 0.45 Å²
